In general, stoichiometry N refers to a count of units in the complex or per binding partner.

These results are taken from PMC4969574 (The EMBO Journal, 2016).

Several values for one entry are separate records, joined by “and”; a condition that tells them apart may be missing. Identical values can stand only once.

The target of data set [1] is T1, TssA1 fused to the adenylate cyclase T25 or T18 subunit (P. aeruginosa, UniProt Q9I750 1-344).
T1 sequence: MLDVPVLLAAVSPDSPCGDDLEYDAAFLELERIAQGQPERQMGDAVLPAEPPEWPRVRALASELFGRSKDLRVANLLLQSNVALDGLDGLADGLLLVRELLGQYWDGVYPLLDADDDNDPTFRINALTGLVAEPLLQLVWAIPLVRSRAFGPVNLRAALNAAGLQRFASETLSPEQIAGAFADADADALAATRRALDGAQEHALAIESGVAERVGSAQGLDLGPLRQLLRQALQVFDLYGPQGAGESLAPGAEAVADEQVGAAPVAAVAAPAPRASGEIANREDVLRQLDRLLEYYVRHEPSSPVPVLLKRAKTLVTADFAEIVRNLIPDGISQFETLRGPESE
The data set is described as follows: two-hybrid; bacterial two-hybrid (BTH), T25 and T18 adenylate cyclase fusions in E. coli DHM1; β-galactosidase activity in Miller units and X-gal LB agar plates. Particulars: partners not purified.

Data set [2] concerns the molecule itself. Description: AUC; sedimentation velocity of His6-TssA1 at 0.8, 0.56 and 0.32 mg/ml, 20,000 and 30,000 rpm, 20 °C, 25 mM Tris-HCl pH 7.5, 200 mM NaCl; c(s) by SEDFIT.

B1: TssK1 fused to the adenylate cyclase T25 or T18 subunit (natural protein)
chain: MSWNNRVVWSEGMFLRPQHFQQHDRYLETLVDGRCRSLLAGGWGFSELKLDDALLTQGKLAIVSARGVLPDGTPFNIPADDPAPAPLNVEESLRDGIVYLGLPLKRVGTRDTVEEGEALGGARYVSQVQEVRDDNAAFESRAPVALGSQAFRLLTERDGLGEYAAVGVARVREKRADQALSLDEDYLPPVLDIAAAPPLASFAKELLGLLHQRGEALAGRVVASSAGGASEIADFLLLQLVNRAEALTGHLSRVRPLHPQELYRELVALAGEFCTFTASQRRPEEYPVYNHDDLAASFAPVMLALRQALATVIDAKAIAIPIVEKAYGVHVAMLSDRSLIDNASFVLVVRADVPGESLRGHFPQQAKVGSVEHIRDLVNLQLPGIGLLPMPVAPRQIPYHAGSTYFELDRGSAHWKQLTHSGGFAFHIAGQFPGLNLAFWAIRG
Turning to B1, the “fold above control (β‐galactosidase activity)” value in data set [1] was approximately 20 fold.

B2: His6-TssA1 (natural protein)
chain: T1 sequence
In the case of B2, the “stoichiometry N” value in data set [2] is 12 and 24.
